Reference: article PMC4831024 (2016)
Ends that are not written are not given here.

target: Ku70/Ku80ΔC heterodimer (human, UniProt P12956 1-609; P13010 1-590); test: FP
Sequence (P12956 whole entry, stated change not applied, chain 1 of 2): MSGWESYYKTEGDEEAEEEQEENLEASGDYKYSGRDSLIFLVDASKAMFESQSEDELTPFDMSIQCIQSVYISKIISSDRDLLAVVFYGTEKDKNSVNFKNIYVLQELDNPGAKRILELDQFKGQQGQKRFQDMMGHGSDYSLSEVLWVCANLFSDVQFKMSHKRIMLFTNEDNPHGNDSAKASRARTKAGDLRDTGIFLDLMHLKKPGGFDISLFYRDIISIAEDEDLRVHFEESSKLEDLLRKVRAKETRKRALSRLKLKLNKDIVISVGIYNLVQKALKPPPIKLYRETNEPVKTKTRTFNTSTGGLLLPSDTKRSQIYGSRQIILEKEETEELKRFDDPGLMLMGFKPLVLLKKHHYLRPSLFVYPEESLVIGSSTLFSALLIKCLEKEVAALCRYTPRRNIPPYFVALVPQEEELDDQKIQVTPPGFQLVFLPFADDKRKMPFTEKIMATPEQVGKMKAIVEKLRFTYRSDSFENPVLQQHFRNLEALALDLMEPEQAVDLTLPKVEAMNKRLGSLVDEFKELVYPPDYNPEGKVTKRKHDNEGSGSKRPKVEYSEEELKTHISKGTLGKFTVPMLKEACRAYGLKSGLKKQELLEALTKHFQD
Sequence (P13010 1-590, stated change not applied, chain 2 of 2): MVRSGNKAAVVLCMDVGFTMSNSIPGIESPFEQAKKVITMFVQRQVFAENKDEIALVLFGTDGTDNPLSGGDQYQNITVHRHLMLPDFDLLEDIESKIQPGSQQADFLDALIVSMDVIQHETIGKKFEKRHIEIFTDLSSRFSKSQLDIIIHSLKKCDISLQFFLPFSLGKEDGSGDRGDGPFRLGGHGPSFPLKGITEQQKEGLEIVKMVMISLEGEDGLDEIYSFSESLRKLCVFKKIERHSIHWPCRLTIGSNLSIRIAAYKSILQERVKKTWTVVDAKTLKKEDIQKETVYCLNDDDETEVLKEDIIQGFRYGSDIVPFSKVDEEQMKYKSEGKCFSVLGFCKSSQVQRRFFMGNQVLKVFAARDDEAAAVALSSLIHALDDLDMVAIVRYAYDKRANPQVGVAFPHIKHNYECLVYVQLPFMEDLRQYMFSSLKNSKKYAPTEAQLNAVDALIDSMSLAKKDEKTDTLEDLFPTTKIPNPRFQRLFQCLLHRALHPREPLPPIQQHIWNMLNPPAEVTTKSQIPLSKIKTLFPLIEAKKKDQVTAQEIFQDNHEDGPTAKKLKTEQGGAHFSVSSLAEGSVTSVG

**Q.** For Fluorescein-GGYGSSAERKRRLPVWFAKG [fluorescein-labelled WRN-cA peptide (C-terminal KBM of WRN)], which Kd is on record?
**A.** 790 nM

**Q.** With Fluorescein-GGYGSSAERKRRLPVWFAKGSDTSKKLMDKTKRGGLFS [fluorescein-labelled WRN-cAX peptide (C-terminal KBM plus XLF-like motif of WRN)] as the binder, how does the Kd read?
**A.** 720 nM

**Q.** How did the Kd turn out when Fluorescein-GGYGAQQRKCPEWMNVQN [fluorescein-labelled WRN-nA peptide (N-terminal KBM of WRN)] was run?
**A.** 1170 nM
